{"source": "patent US20080292615", "key": {"[1]": {"tested_on": "T1, Peptide P1 (corneodesmosin fragment with L at position 40 of L20815)", "T1 sequence": "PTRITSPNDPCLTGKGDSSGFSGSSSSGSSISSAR"}, "[2]": {"tested_on": "T2, Peptide P2 (corneodesmosin fragment with F at position 40 of L20815)", "T2 sequence": "T1 sequence with L12F"}}, "note": "Changes are numbered by the printed parent chain."}
{"substance": "chymotrypsin", "values": [{"measurement": "products of proteolysis after exposure of the peptide to chymotrypsin", "setting": "[1]", "value": "peptide P1 with L at position 40 of L20815 gives two products of proteolysis: PTRITSPNDPCL40TGKGDSSGF (SEQ ID NO 23) and SGSSSSGSSISSAR (SEQ ID NO 24)"}, {"measurement": "products of proteolysis after exposure of the peptide to chymotrypsin", "setting": "[2]", "value": "peptide P2 with F at position 40 of L20815 gives three small peptides PTRITSPNDPCF (SEQ ID NO 25), TGKGDSSGF (SEQ ID NO 26) and SGSSSSGSSISSAR (SEQ ID NO 24)"}]}
